For two substances, activity results are on record in US20020081574.

Where two headings read alike, the source gives them in different places.

Data set [1] has as its target HCV NS3 full length (bacNS3-5B derived) (Hepatitis C virus strain H) (UniProt P27958).
In data set [2] the target is HCV NS3 full length (bacNS3 derived) (Hepatitis C virus strain H) (UniProt P27958).
Data set [3] has as its target HCV NS3 full length (bacNS3-5B derived) (Hepatitis C virus strain H) (UniProt P27958). The settings on record: Km for RNA substrate; helicase strand displacement, PIPES pH 6.5, MnCl2, 37 C.

HCV NS3 full length (bacNS3-5B derived) (Hepatitis C virus strain H), sequence (P27958 1027-1657): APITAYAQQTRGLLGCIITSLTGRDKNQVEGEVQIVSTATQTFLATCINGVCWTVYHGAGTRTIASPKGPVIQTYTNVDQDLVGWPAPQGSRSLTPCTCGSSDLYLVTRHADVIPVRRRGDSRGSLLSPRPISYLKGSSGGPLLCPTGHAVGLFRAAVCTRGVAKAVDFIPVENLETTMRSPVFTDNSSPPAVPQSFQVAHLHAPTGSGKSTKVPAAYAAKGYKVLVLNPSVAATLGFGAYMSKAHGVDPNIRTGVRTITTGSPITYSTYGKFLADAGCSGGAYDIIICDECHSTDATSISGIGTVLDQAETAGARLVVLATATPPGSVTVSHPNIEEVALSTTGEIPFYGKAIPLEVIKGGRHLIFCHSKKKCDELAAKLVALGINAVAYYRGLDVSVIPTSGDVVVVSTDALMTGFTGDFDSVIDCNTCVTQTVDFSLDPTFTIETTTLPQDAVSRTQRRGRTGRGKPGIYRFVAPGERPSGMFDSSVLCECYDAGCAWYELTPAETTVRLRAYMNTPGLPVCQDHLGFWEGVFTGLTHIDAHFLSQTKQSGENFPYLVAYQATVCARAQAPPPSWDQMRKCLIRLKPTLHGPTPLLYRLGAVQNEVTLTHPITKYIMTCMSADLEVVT
HCV NS3 full length (bacNS3 derived) (Hepatitis C virus strain H), sequence (P27958 1027-1657): as above

With “standard RNA helicase substrate (3' and 5' single strand regions)”, the activity in data set [1] (helicase catalytic rate) was 0.01 min⁻¹; in data set [2] (helicase catalytic rate), 0.003 min⁻¹; in data set [3], 0.5 nM.
With poly(U), the activity was determined as 1050 min⁻¹ in data set [1] (ATPase rate with poly(U), 23 without) and 659 min⁻¹ in data set [2] (ATPase rate with poly(U), 0 without).
